Where no end group is shown, it is not given here.
Assay: Percentage content of secondary structure by CD (circular dichroism) spectrum
Format: physicochemical
Details: for Percentage content of secondary structure In HEPES: free peptide in HEPES buffer solution (10 mM HEPES-HCl, 150 mM NaCl, pH 7.4, 25° C.); for Percentage content of secondary structure In MeOH: free peptide in methanol (purity 99.5% by mass)

Substance | Percentage content of secondary structure In HEPES [%] | Percentage content of secondary structure In MeOH [%]
KKKKEQQNAFYEILHKKKK (SIMILAR (5)..(11) SEQ ID No.1 EQQNAFY; SIMILAR (5)..(15) SEQ ID No.2 EQQNAFYEILH) [Short-chain peptide 4] | 32 | 100
KKKEQQNAFYEILHKKK (SIMILAR (4)..(14) SEQ ID No.2 EQQNAFYEILH; SIMILAR (4)..(10) SEQ ID No.1 EQQNAFY) [Short-chain peptide 3] | 33 | 100
KKRKEQQKKFYKKLHK [Short-chain peptide 8] | 16 | 88
KKRKEQQNAFYEILHKRRKK [Short-chain peptide 7] | 35 | 100
KKRREQQNAFYEILHKRRKK [Short-chain peptide 6] | 35 | 100
KKKKKEQQNAFYEILH (SIMILAR (6)..(12) SEQ ID No.1 EQQNAFY; SIMILAR (6)..(16) SEQ ID No.2 EQQNAFYEILH) [Short-chain peptide 2] | 30 | 84
Ac-KAAKEQQKAFYKILH [Short-chain peptide 5] | 36 | 92

Reference: patent US10927188B2, “Method for producing short-chain peptide-immobilized carrier, and short-chain peptide-immobilized carrier” (FUJIFILM Corporation, priority 2015, dated 2021)
